The series can be described thus: protein stability index of a GFP-peptide fusion (GPS, HEK-293T) (PSI 1-6); higher = more stable. The settings on record: c terminus: a fixed tail appended.

± gives the standard deviation.
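Further: 24-mer peptide tiles fused after GFP, lentivirally expressed, FACS-sorted into six equal bins by GFP/DsRed ratio, decoded by Illumina sequencing, PSI is the read-weighted mean bin number.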

With QELCEGLLEESDGEGEPGQGEGPE [NOP53], the protein stability index by setting is: (treatment: DMSO) 5.6 ± 0.14; (treatment: MLN4924 1 uM, 8 h) 5.56 ± 0.11.

Take QEMVVSSLVIGALLASLTGGVLID [SLC2A12]: the protein stability index worked out at 3.61 ± 0.39 (treatment: DMSO) and 3.45 ± 0.73 (treatment: MLN4924 1 uM, 8 h).

QENYLEYRQVPGSDPARYEFLWGP [MAGEA10] displayed a protein stability index (treatment: DMSO) of 3.28 ± 0.27 and a protein stability index (treatment: MLN4924 1 uM, 8 h) of 3.54 ± 0.32.

QEYNIPGVIQSVIGWKTVRMYPFQ [CDS2]: the protein stability index by setting is: (treatment: DMSO) 2.45 ± 0.67; (treatment: MLN4924 1 uM, 8 h) 2.42 ± 0.3.

For the sequence QFAISRELIRNIYNSFHKLRDRAE [SNX8], the protein stability index reads like this: (treatment: DMSO) 2.19 ± 0.13; (treatment: MLN4924 1 uM, 8 h) 2.23 ± 0.21.

Consider QGDSSQQSLKGHLRNNFQKQLLSN [ZC2HC1C], for which the protein stability index is, setting by setting: (treatment: DMSO) 3.31 ± 0.27; (treatment: MLN4924 1 uM, 8 h) 3.88 ± 0.16.

For QGELADQDVDPVHNLIEQVSLGLG [FBXO33], the protein stability index runs as follows: (treatment: DMSO) 4.55 ± 0.27; (treatment: MLN4924 1 uM, 8 h) 4.66 ± 0.072.

As for QHHEALSLFCYEDQEAVCLICAIS [TRIM39], the protein stability index was 2.26 ± 0.23 (treatment: DMSO) and 2.35 ± 0.18 (treatment: MLN4924 1 uM, 8 h).

As to QIGFSVGLGNIWRFPYLCQKNGGG [SLC6A17], the protein stability index is, setting by setting: (treatment: DMSO) 2.02 ± 0.37; (treatment: MLN4924 1 uM, 8 h) 1.9 ± 0.33.

QILGQTLKASMRELGLLIFFLFIG [KCNA1]: the protein stability index (treatment: DMSO) stood at 2.67 ± 0.67 and the protein stability index (treatment: MLN4924 1 uM, 8 h) turned out to be 2.45 ± 0.51.

Take QISMELAKVNYVKNNICFMSHHQE [SLC2A12]: the protein stability index is, setting by setting: (treatment: DMSO) 2.6 ± 0.16; (treatment: MLN4924 1 uM, 8 h) 2.41 ± 0.27.

On to QKEDVKPYQVNGVNPAYPESRYTS [ETS1], for which the protein stability index is 4.53 ± 0.18 (treatment: DMSO) and 4.48 ± 0.15 (treatment: MLN4924 1 uM, 8 h).

As to QLSRLNITYPMLFKLTNKNSDRMT [UFD1], the protein stability index amounted to 2.33 ± 0.14 (treatment: DMSO) and 2.58 ± 0.42 (treatment: MLN4924 1 uM, 8 h).

Turning to QMGVSAKRRPKAQPTTLVLPPQYV [MED27], the protein stability index is 2.99 ± 0.19 (treatment: DMSO) and 3.1 ± 0.19 (treatment: MLN4924 1 uM, 8 h).

QNCTDEGEREAIQKSVTRSCLLEE [POP5] yielded a protein stability index (treatment: DMSO) of 5.17 ± 0.3 and a protein stability index (treatment: MLN4924 1 uM, 8 h) of 5.3 ± 0.33.

QNFKNRESYPEDTVFYIPEDHKPG [DLC1]: the protein stability index by setting is: (treatment: DMSO) 4.63 ± 0.087; (treatment: MLN4924 1 uM, 8 h) 4.53 ± 0.44.

As to QNINAPAPATTSSWEVVRNPLIAS [C22orf31], the protein stability index stood at 3.65 ± 0.32 (treatment: DMSO) and 3.7 ± 0.16 (treatment: MLN4924 1 uM, 8 h).

Take QNPGKFDELDMSPGDPKWLDVIER [TBC1D10A]: the protein stability index was found to be 4.27 ± 0.081 (treatment: DMSO) and 4.49 ± 0.28 (treatment: MLN4924 1 uM, 8 h).

QNQHHSASLQASIFSGAASLGYGT [APBB1IP]: the protein stability index is, setting by setting: (treatment: DMSO) 3.19 ± 0.16; (treatment: MLN4924 1 uM, 8 h) 3.15 ± 0.17.

Turning to QPLRPWAGGDVPHKTHQAPASASS [DYRK1B], the protein stability index is, setting by setting: (treatment: DMSO) 4.54 ± 0.17; (treatment: MLN4924 1 uM, 8 h) 4.58 ± 0.26.

Consider QPVVDTFDIRILMAKSVKYTVNFL [CARM1], for which the protein stability index is, setting by setting: (treatment: DMSO) 2.79 ± 0.7; (treatment: MLN4924 1 uM, 8 h) 2.62 ± 0.56.

QQFQPAGTDQVCVLEWGAEGVAGK [FCHSD1]: the protein stability index is 4.46 ± 0.24 (treatment: DMSO) and 4.64 ± 0.23 (treatment: MLN4924 1 uM, 8 h).

Turning to QRILRIMCRLEELGLAGRCLTLTP [HDAC6], the protein stability index runs as follows: (treatment: DMSO) 2.39 ± 0.44; (treatment: MLN4924 1 uM, 8 h) 2.34 ± 0.39.

For QRQKYLSLQQMQELSNILNLSYKQ [NANOGP8], the protein stability index came to 2.57 ± 0.29 (treatment: DMSO) and 2.69 ± 0.15 (treatment: MLN4924 1 uM, 8 h).

With QRRHGWNPKDCSENIEVKEGGLYF [SPSB2], the protein stability index is 3.45 ± 0.31 (treatment: DMSO) and 3.76 ± 0.46 (treatment: MLN4924 1 uM, 8 h).

On to QRVVYLEGCGPPLRRWLRANLAAS [TSPAN10], for which the protein stability index reads like this: (treatment: DMSO) 2.26 ± 0.33; (treatment: MLN4924 1 uM, 8 h) 2.11 ± 0.24.

As for QRYILYWRKRFTEQPITDFCSVIR [ZNF277], the protein stability index (treatment: DMSO) is 1.93 ± 0.23 and the protein stability index (treatment: MLN4924 1 uM, 8 h) was determined as 2.24 ± 0.26.

Consider QSSGLIRHQRIHTGERPYECNECG [ZSCAN9], for which the protein stability index (treatment: DMSO) worked out at 4.03 ± 0.36 and the protein stability index (treatment: MLN4924 1 uM, 8 h) was 4 ± 0.49.

In the case of QTGGDVNVEMDAAPGVDLSRILNE [KRT16], the protein stability index is, setting by setting: (treatment: DMSO) 4.97 ± 0.31; (treatment: MLN4924 1 uM, 8 h) 5.18 ± 0.085.

QVKLYDIEQQQIRNALENIRKEMK [CRYL1]: the protein stability index by setting is: (treatment: DMSO) 3.14 ± 0.65; (treatment: MLN4924 1 uM, 8 h) 3.47 ± 0.29.

Regarding QVKSRQNKTNKNSVSSCDQEHQSA [SMOC2], the protein stability index is 5.1 ± 0.32 (treatment: DMSO) and 5.34 ± 0.16 (treatment: MLN4924 1 uM, 8 h).

As to RAALISRRHLQFWKSHLRNVQRPL [RHOBTB2], the protein stability index runs as follows: (treatment: DMSO) 2.56 ± 0.13; (treatment: MLN4924 1 uM, 8 h) 2.56 ± 0.22.

Turning to RAALTYTSLEITILTSQPGKEVVK [M1AP], the protein stability index runs as follows: (treatment: DMSO) 2.32 ± 0.19; (treatment: MLN4924 1 uM, 8 h) 2.49 ± 0.34.

Consider RAIMAHMTVEEIYKDRQKFSEQVF [FLOT1], for which the protein stability index came out at 2.52 ± 0.32 (treatment: DMSO) and 2.74 ± 0.3 (treatment: MLN4924 1 uM, 8 h).

As to RAVLGGLSQTDPRAGGGGGGDYGL [PPTC7], the protein stability index reads like this: (treatment: DMSO) 4.01 ± 0.84; (treatment: MLN4924 1 uM, 8 h) 3.85 ± 1.5.

As to RCFWLGMEGLETAEGSNSESSDDD [SDE2], the protein stability index reads like this: (treatment: DMSO) 5.22 ± 0.42; (treatment: MLN4924 1 uM, 8 h) 5.09 ± 0.3.
